Measured values reported in paper PMC10397247.

Experiments:
4H4073-bH = molecular target: T1, 4H4073-bH; test: two-hybrid library CCNG1;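 note: natural log of median RNA to DNA barcode read ratio; higher means stronger binding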
T1 chain: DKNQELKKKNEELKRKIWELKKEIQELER

4H457-bH = molecular target: T2, 4H457-bH; test: two-hybrid library CCNG1;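 note: natural log of median RNA to DNA barcode read ratio; higher means stronger binding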
T2 chain: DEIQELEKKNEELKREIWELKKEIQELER

4H968-bH = molecular target: T3, 4H968-bH; test: two-hybrid library CCNG1;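 note: natural log of median RNA to DNA barcode read ratio; higher means stronger binding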
T3 chain: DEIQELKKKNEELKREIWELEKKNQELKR

4H346-bH = molecular target: T4, 4H346-bH; test: two-hybrid library CCNG1;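 note: natural log of median RNA to DNA barcode read ratio; higher means stronger binding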
T4 chain: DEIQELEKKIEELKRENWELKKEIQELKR

4H683-bH = molecular target: T5, 4H683-bH; test: two-hybrid library CCNG1;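 note: natural log of median RNA to DNA barcode read ratio; higher means stronger binding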
T5 chain: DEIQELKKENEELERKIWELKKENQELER

4H575-bH = molecular target: T6, 4H575-bH; test: two-hybrid library CCNG1;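 note: natural log of median RNA to DNA barcode read ratio; higher means stronger binding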
T6 chain: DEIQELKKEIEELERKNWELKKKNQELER

4H2673-bH = molecular target: T7, 4H2673-bH; test: two-hybrid library CCNG1
T7 chain: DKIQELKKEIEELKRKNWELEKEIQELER

4H370-bN = molecular target: T8, 4H370-bN; test: two-hybrid library CCNG1
T8 chain: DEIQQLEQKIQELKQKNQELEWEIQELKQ

4H754-bH = molecular target: T9, 4H754-bH; test: two-hybrid library CCNG1
T9 chain: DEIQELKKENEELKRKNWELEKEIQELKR

4H3427-bH = molecular target: T10, 4H3427-bH; test: two-hybrid library CCNG1
T10 chain: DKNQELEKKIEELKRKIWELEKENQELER

4H918-bH = molecular target: T11, 4H918-bH; test: two-hybrid library CCNG1
T11 chain: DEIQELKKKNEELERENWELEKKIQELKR

4H953-bH = molecular target: T12, 4H953-bH; test: two-hybrid library CCNG1
T12 chain: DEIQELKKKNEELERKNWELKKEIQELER

4H855-bH = molecular target: T13, 4H855-bH; test: two-hybrid library CCNG1
T13 chain: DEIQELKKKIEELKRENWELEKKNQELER

4H3354-bH = molecular target: T14, 4H3354-bH; test: two-hybrid library CCNG1
T14 chain: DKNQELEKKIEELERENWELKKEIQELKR

4H780-bH = molecular target: T15, 4H780-bH; test: two-hybrid library CCNG1
T15 chain: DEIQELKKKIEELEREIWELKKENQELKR

4H3926-bH = molecular target: T16, 4H3926-bH; test: two-hybrid library CCNG1
T16 chain: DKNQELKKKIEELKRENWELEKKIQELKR

4H2586-bH = molecular target: T17, 4H2586-bH; test: two-hybrid library CCNG1
T17 chain: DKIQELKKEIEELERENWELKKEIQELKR

4H797-bH = molecular target: T18, 4H797-bH; test: two-hybrid library CCNG1
T18 chain: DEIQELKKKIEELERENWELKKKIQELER

4H3010-bH = molecular target: T19, 4H3010-bH; test: two-hybrid library CCNG1
T19 chain: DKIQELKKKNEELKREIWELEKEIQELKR

4H3112-bH = molecular target: T20, 4H3112-bH; test: two-hybrid library CCNG1
T20 chain: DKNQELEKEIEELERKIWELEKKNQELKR

4H2702-bH = molecular target: T21, 4H2702-bH; test: two-hybrid library CCNG1
T21 chain: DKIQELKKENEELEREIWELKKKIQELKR

4H2627-bH = molecular target: T22, 4H2627-bH; test: two-hybrid library CCNG1
T22 chain: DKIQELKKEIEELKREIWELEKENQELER

P8 = molecular target: T23, P8; test: two-hybrid library CC1; details: mean of both orientations
T23 chain: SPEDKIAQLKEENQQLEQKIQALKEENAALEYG

P6mS = molecular target: T24, P6mS; test: two-hybrid library CC1; details: mean of both orientations
T24 chain: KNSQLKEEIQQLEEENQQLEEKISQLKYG

P5SC2 = molecular target: T25, P5SC2; test: two-hybrid library CC1; details: mean of both orientations
T25 chain: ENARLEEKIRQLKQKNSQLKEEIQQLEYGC

P8mS = molecular target: T26, P8mS; test: two-hybrid library CC1; details: mean of both orientations
T26 chain: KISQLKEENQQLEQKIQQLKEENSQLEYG

P5 = molecular target: T27, P5; test: two-hybrid library CC1; details: mean of both orientations
T27 chain: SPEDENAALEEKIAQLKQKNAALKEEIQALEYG

P5mS = molecular target: T28, P5mS; test: two-hybrid library CC1; details: mean of both orientations
T28 chain: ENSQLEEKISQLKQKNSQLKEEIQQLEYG

P4mS = molecular target: T29, P4mS; test: two-hybrid library CC1
T29 chain: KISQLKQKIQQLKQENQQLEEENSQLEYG

P7mS = molecular target: T30, P7mS; test: two-hybrid library CC1; details: mean of both orientations
T30 chain: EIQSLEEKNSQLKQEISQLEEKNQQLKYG

P6SC2 = molecular target: T31, P6SC2; test: two-hybrid library CC1; details: mean of both orientations
T31 chain: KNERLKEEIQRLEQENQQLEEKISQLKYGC

P9 = molecular target: T32, P9; test: two-hybrid library CC1; details: mean of both orientations
T32 chain: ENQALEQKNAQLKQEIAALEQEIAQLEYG

P6SC1 = molecular target: T33, P6SC1; test: two-hybrid library CC1; details: mean of both orientations
T33 chain: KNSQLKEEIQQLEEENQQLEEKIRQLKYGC

P6 = molecular target: T34, P6; test: two-hybrid library CC1; details: mean of both orientations
T34 chain: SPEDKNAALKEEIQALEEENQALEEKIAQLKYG

P7 = molecular target: T35, P7; test: two-hybrid library CC1; details: mean of both orientations
T35 chain: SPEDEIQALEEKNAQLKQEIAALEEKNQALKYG

P5SC1 = molecular target: T36, P5SC1; test: two-hybrid library CC1; details: mean of both orientations
T36 chain: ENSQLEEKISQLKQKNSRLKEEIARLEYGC

4H3632-bA = molecular target: T37, 4H3632-bA; test: two-hybrid library CCNG1
T37 chain: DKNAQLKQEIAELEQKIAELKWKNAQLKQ

4H496-bA = molecular target: T38, 4H496-bA; test: two-hybrid library CCNG1
T38 chain: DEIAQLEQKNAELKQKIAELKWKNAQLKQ

## DKIQELKKEIEELERENWELKKEIQELKR [4H2586-bH]
4H4073-bH
  interaction score: 0.357
4H457-bH
  interaction score: -0.749
4H968-bH
  interaction score: -0.864
4H346-bH
  interaction score: 0.563
4H683-bH
  interaction score: 0.126
4H575-bH
  interaction score: 0.499
4H2673-bH
  interaction score: 1.76
4H370-bN
  interaction score: 0.548
4H754-bH
  interaction score: -0.599
4H3427-bH
  interaction score: 0.762
4H918-bH
  interaction score: -0.131
4H953-bH
  interaction score: 0.313
4H855-bH
  interaction score: 0.679
4H3354-bH
  interaction score: 0.825
4H780-bH
  interaction score: -1.12
4H3926-bH
  interaction score: 1.73
4H2586-bH
  interaction score: 1.34
4H797-bH
  interaction score: 0.65
4H3010-bH
  interaction score: 0.779
4H3112-bH
  interaction score: -1.96
4H2702-bH
  interaction score: 0.0111
4H2627-bH
  interaction score: 0.688

## KISQLKQKIQQLKQENQQLEEENSQLEYG [P4mS]
P8
  interaction score: -2.9
P6mS
  interaction score: -3
P5SC2
  interaction score: -2.82
P8mS
  interaction score: -2.9
P5
  interaction score: -3.02
P5mS
  interaction score: -2.9
P4mS
  interaction score: -3.22
P7mS
  interaction score: -2.94
P6SC2
  interaction score: -2.64
P9
  interaction score: -2.65
P6SC1
  interaction score: -2.65
P6
  interaction score: -2.75
P7
  interaction score: -2.78
P5SC1
  interaction score: -2.92

## DKNAQLKQEIAELEQKIAELKWKNAQLKQ [4H3632-bA]
4H3632-bA
  interaction score: 1.23
4H496-bA
  interaction score: 0.728
